{"source": "patent US20260297165", "about": "(published 2026)", "binders": {"B1": {"name": "Vector KRE sCD59-6xHis wild-type (protein)", "chain": "MGIQGGSVLFGLLLVLAVFCHSGHSLQCYNCPNPTADCKTAVNCSSDFDACLITKAGLQVYNKCWKFEHCNFNDVTTRLRENELTYYCCKKDLCNFNEQLENHHHHHH"}, "B2": {"name": "Vector KRG vsCD59 N18Q-6xHis (protein)", "chain": "MGIQGGSVLFGLLLVLAVFCHSGHSLQCYNCPNPTADCKTAVQCSSDFDACLITKAGLQVYNKCWKFEHCNFNDVTTRLRENELTYYCCKKDLCNFNEQLENHHHHHH"}, "B3": {"name": "Vector MTC sCD59 T51G-6xHis (protein)", "chain": "MGIQGGSVLFGLLLVLAVFCHSGHSLQCYNCPNPTADCKTAVNCSSDFDACLITKAGLQVYNKCWKFEHCNFNDVGTRLRENELTYYCCKKDLCNFNEQLENHHHHHH"}, "B4": {"name": "Vector MTA sCD59 S20G-6xHis (protein)", "chain": "MGIQGGSVLFGLLLVLAVFCHSGHSLQCYNCPNPTADCKTAVNCGSDFDACLITKAGLQVYNKCWKFEHCNFNDVTTRLRENELTYYCCKKDLCNFNEQLENHHHHHH"}, "B5": {"name": "Vector MTE sCD59 S20G,T51G-6xHis (protein)", "chain": "MGIQGGSVLFGLLLVLAVFCHSGHSLQCYNCPNPTADCKTAVNCGSDFDACLITKAGLQVYNKCWKFEHCNFNDVGTRLRENELTYYCCKKDLCNFNEQLENHHHHHH"}, "B6": {"name": "Vector KRM vsCD59 K38R-6xHis (protein)", "chain": "MGIQGGSVLFGLLLVLAVFCHSGHSLQCYNCPNPTADCKTAVNCSSDFDACLITKAGLQVYNRCWKFEHCNFNDVTTRLRENELTYYCCKKDLCNFNEQLENHHHHHH"}, "B7": {"name": "sCD59 wild-type, in-house purified (protein)", "chain": "MGIQGGSVLFGLLLVLAVFCHSGHSLQCYNCPNPTADCKTAVNCSSDFDACLITKAGLQVYNKCWKFEHCNFNDVTTRLRENELTYYCCKKDLCNFNEQLEN"}, "B8": {"name": "sCD59 (His)10 wild-type, commercial (protein)", "chain": "LQCYNCPNPTADCKTAVNCSSDFDACLITKAGLQVYNKCWKFEHCNFNDVTTRLRENELTYYCCKKDLCNFNEQLEN"}}, "target": "C9 (human, UniProt P02748)", "sequence (P02748 22-559)": "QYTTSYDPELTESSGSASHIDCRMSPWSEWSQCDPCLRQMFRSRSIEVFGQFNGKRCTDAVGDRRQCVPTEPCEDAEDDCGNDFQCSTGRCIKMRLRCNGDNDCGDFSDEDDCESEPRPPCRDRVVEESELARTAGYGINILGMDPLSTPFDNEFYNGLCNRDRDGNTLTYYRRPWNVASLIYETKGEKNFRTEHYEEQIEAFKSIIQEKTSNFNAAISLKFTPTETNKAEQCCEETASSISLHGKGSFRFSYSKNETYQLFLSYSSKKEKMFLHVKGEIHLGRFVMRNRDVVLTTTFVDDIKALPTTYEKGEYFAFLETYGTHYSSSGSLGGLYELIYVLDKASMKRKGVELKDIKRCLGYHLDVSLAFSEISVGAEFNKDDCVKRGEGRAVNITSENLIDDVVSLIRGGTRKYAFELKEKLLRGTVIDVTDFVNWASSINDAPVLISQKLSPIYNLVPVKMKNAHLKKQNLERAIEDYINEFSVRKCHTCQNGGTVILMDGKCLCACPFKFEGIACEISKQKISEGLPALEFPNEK", "test": "other (MSD ECL)", "data": [{"binder": "B1", "values": [{"measurement": "Kd", "result": 34.3, "unit": "nM"}]}, {"binder": "B2", "values": [{"measurement": "Kd", "result": 16, "unit": "nM"}]}, {"binder": "B3", "values": [{"measurement": "Kd", "result": 23.7, "unit": "nM"}]}, {"binder": "B4", "values": [{"measurement": "Kd", "result": 46.1, "unit": "nM"}]}, {"binder": "B5", "values": [{"measurement": "Kd", "result": 28.9, "unit": "nM"}]}, {"binder": "B6", "values": [{"measurement": "Kd", "result": 39, "unit": "nM"}]}, {"binder": "B7", "values": [{"measurement": "Kd", "result": 38.6, "unit": "nM"}]}, {"binder": "B8", "values": [{"measurement": "Kd", "result": 33.1, "unit": "nM"}]}]}
